# Source: patent publication US20200384083A1 (SINGAPORE HEALTH SERVICES PTE, published 2020)
# B1: mouse anti-mouse IL-11Rα IgG X209 (antibody, V domains shown)
# VH: QVQLQQPGAELVRPGSSVKLSCKASGYTFTNYWMHWLKQRPVQGLEWIGNIGPSDSKTHYNQKFKDKATLTVDKSSSTAYMQLNSLTSEDSAVYYCARGDYVLFTYWGQGTLVTVSA
# VL: DIVLTQSPATLSLSPGERATLSCRASQSISNNLHWYQQKSHEAPRLLIKYASQSISGIPARFSGSGSGTDFTLSFSSLETEDFAVYFCQQSYSWPLTFGQGTKLEIK
# notes: also called Enx209; neutralizing anti-IL11RA
# Columns and labels:
# [1] = molecular target: T1, human IL11RA (analyte in the Biacore assay) (human, UniProt Q14626 23-370, limits assumed); assay: SPR (Biacore T200): X209 captured on an anti-mouse capture chip, human IL11RA injected as analyte at 1.56 nM to 100 nM, 1:1 Langmuir fit
# T1 construct: also called IL-11Rα
# T1 sequence: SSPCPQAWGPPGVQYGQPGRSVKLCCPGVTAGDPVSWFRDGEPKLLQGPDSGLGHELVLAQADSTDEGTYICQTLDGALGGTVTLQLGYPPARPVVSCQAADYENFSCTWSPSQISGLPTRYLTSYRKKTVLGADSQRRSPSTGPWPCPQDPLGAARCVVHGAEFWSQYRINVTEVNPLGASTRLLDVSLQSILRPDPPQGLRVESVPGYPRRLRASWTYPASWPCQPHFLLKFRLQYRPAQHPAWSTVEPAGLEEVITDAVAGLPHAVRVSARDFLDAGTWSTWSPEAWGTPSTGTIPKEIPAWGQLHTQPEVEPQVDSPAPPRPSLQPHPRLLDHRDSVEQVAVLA
# Procedure: (§1) Binding of X209 to human IL11RA was measured on Biacore T200 (GE Healthcare). X209 was immobilized onto an anti-mouse capture chip. Interaction assays were performed with HEPES-buffered saline pH 7.4 containing 0.005% P20 and 0.5% BSA. A concentration range (1.56 nM to 100 nM) of the analyte (human IL11 RA) was injected over X209 and reference surfaces at a flow rate of 40 μl min⁻¹. Binding to mouse 1111ra1 was confirmed on Octet system (ForteBio) using a similar strategy. All sensograms were aligned and double-referenced⁴. Affinity and kinetic constants were determined by fitting the corrected sensorgrams with 1:1 Langmuir model. The equilibrium binding constant KD was determined by the ratio of kd/kₐ.
# [2] = molecular target: T1, human IL11RA (analyte in the Biacore …); assay: SPR, Biacore T200; X209 captured on an anti-mouse chip, human IL11RA as analyte (1.56 nM to 100 nM), 1:1 Langmuir fit
# Procedure: as §1
# mouse IL-11Rα (Il11ra1) = molecular target: T2, mouse IL-11Rα (Il11ra1) (mouse, UniProt Q64385 24-372, limits assumed); assay: BLI, Octet (ForteBio)
# T2 construct: also called mouse Il11ra1
# T2 sequence (looked up): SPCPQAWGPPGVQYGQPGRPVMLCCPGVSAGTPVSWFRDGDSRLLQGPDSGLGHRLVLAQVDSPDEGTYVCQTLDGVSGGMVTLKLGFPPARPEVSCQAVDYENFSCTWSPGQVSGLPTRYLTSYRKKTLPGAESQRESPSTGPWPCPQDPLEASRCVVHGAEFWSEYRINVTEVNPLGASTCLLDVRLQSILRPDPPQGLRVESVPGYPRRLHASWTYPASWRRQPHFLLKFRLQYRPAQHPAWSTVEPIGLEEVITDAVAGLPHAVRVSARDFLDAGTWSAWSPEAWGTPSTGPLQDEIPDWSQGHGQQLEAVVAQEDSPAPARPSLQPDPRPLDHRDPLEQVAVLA
binder,measurement,setting,value
B1,Kd,[1],6.01 nM
same,koff,[1],0.000757 s⁻¹
same,kon,[1],126000 M⁻¹ s⁻¹
same,Kd,[2],6 nM
same,binding result,mouse IL-11Rα (Il11ra1),binds
